Blank lines part the entries; values can stand above or below the binder they belong to.
Biological target: T1, mCherry–Gβ1γ2 dimer (UniProt P62873 1-340; P59768 1-71, 20-carbon geranylgeranyl lipid on the cysteine of the C-terminal CaaX motif (said of Gγ2 in general))
T1 construct: Gβ1 subunit; cDNA in pcDNA3.1+ from UMR cDNA Resource Center; FP cloned at the N-terminus; Gγ2 subunit; source: HEK 293, transiently co-transfected (mCherry–Gβ1 and Gγ2), in living cells; not shown: mCherry, N-terminal, kept
Assay: FRET or BRET; FLIM-FRET in living transiently transfected HEK 293 cells at 37 °C; donor Citrine in Gα, acceptor mCherry on Gβ1 with the appropriate Gγ; efficiency E = 1 − τda/τd from the short lifetime component τ1 (donor alone 2.7 ± 0.1 ns), analysed only at the plasma membrane; GppNHp added to the culture did not change the signal
Conditions: partners not purified

FRET efficiency: 50%
B1: Citrine–Gαi3 (natural protein)
chain: MGCTLSAEDKAAVERSKMIDRNLREDGEKAAKEVKLLLLGAGESGKSTIVKQMKIIHEDGYSEDECKQYKVVVYSNTIQSIIAIIRAMGRLKIDFGEAARADDARQLFVLAGSAEEGVMTPELAGVIKRLWRDGGVQACFSRSREYQLNDSASYYLNDLDRISQSNYIPTQQDVLRTRVKTTGIVETHFTFKDLYFKMFDVGGQRSERKKWIHCFEGVTAIIFCVALSDYDLVLAEDEEMNRMHESMKLFDSICNNKWFTETSIILFLNKKDLFEEKIKRSPLTICYPEYTGSNTYEEAAAYIQCQFEDLNRRKDTKEIYTHFTCATDTKNVQFVFDAVTDVIIKNNLKECGLY
notes: cDNA in pcDNA3.1+ from UMR cDNA Resource Center; also called loop-tagged Gαi3; source: HEK 293, transiently transfected, in living cells; not shown: Citrine, internal (after residue 114), kept

FRET efficiency: 12.9%
B2: Citrine–GαsIEK (natural protein)
chain: MGCLGNSKTEDQRNEEKAQREANKKAAAQLQKDKQVYRATHRLLLLGAGESGKSTIVKQMRILHVNGFNGNSDGEKATKVQDIKNNLKEAIETIVAAMSNLVPPVELANPENQFRVDYILSVMNVPDFDFPPEFYEHAKALWEDEGVRACYERSNEYQLIDCAQYFLDKIDVIKQADYVPSDQDLLRCRVLTSGIFETKFQVDKVNFHMFDVGGQRDERRKWIQCFNDVTAIIFVVASSSYNMVIREDNQTNRLQEALNLFKSIWNNRWLRTISVILFLNKQDLLAEKVLAGKSKIEDYFPEFARYTTPEDATPEPGEDPRVTRAKYFIRDEFLRISTASGDGRHYCYPHFTCAVDTENIRRVFNDCRDIIQRMHLRQYELL
notes: Gαs subunit with the conserved region Ile26–Glu27–Lys28 (G.HN.43–45) changed to three alanines; cDNA from UMR cDNA Resource Center; the L1 loop Glu71-Ser82 exchanged for the fluorescent protein as in m1; Mutations made with the Quick Change method on the Gαs fusion; also called mutant GαsIEK protein; source: HEK 293, transiently transfected; in living cells (FLIM-FRET) and in cell lysate or …

Source: article PMC6829862, “Gγ and Gα Identity Dictate a G-Protein Heterotrimer Plasma Membrane Targeting” (Cells, 2019)
